Results: patent US7192728B2, “Screening assays for agents that alter inhibitor of apoptosis (IAP) protein regulation of caspase activity” (The Burnham Institute, priority 1997, dated 2007)

How the values were obtained:
caspase-6 = biological target: T1, caspase-6 (Homo sapiens, UniProt P55212); test: Inhibition of purified recombinant caspase-6, DEVD substrate hydrolysis; format: biochemical
T1 construct: Purified active caspase concentrations ranged from 0.1 nM to 10 nM; His6; made in house; host or cells: E. coli BL21(DE3)pLysS
T1 sequence (P55212 24-179 limits assumed): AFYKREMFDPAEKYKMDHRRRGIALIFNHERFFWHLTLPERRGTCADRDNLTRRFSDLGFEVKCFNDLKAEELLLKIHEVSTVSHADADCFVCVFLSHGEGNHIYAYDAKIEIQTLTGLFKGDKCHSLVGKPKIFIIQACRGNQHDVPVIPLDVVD
T1 sequence (P55212 194-293 limits assumed): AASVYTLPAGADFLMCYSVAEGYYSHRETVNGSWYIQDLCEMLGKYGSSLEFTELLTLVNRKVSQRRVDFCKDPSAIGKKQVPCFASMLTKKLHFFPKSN
Procedure: (§1) Purified recombinant caspase-1, caspase-3, caspase-6, caspase-7 or caspase-8 were incubated with DEVD-pNA, either alone or with a 10-fold to 50-fold molar excess of GST-XIAP ([…]) and substrate hydrolysis was measured. Purified active caspase concentrations ranged from 0.1 nM to 10 nM. XIAP concentration ranged from 0.1 nM to 500 nM. Assays were performed in caspase buffer (50 mM Tris, pH 7.4, 100 mM NaCl, 10% sucrose, 5–10 mM DTT, 1 mM EDTA and 0.1% CHAPS).
(§2) Equilibria were determined from progress curves when substrate hydrolysis reached a steady-state; slopes were calculated by curve fit analysis using the cricket graph program. Experiments were performed using purified recombinant caspase-3, caspase-6, or caspase-7. DEVD-AFC hydrolysis was measured using 0.1 nM caspase and a range of concentrations (0.2 to 12 μM) of recombinant XIAP (rXIAP). […] Average ratio velocities (vi/vo, where “vi” indicates presence of GST-XIAP and “vo” indicates absence of GST-XIAP) were determined.

caspase-8 = biological target: T2, caspase-8 (Homo sapiens, UniProt Q14790); test: Inhibition of purified recombinant caspase-8, DEVD substrate hydrolysis; format: biochemical
T2 construct: a cDNA encoding the catalytic subunit of caspase-8 (Ser 217 to the C-terminus); His6; made in house; host or cells: E. coli BL21(DE3)pLysS
Procedure: as §1, §2

caspase-1 = biological target: T3, caspase-1 (Homo sapiens, UniProt P29466); test: Inhibition of purified recombinant caspase-1, substrate hydrolysis; format: biochemical; details: 50-fold molar excess
T3 construct: Purified active caspase concentrations ranged from 0.1 nM to 10 nM; made in house
T3 sequence (P29466 120-297 limits assumed): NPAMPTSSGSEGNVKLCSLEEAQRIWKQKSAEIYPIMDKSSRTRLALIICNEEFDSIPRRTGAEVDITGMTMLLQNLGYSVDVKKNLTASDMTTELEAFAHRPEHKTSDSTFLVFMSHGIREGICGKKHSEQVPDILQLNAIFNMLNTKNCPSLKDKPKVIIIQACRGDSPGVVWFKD
T3 sequence (P29466 317-404 limits assumed): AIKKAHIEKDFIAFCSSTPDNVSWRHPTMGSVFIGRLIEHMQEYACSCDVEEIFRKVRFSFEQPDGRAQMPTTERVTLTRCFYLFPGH
Procedure: as §1

[1] = system: DEVD-pNA hydrolysis activity in Jurkat T cell cytosolic extracts; test: Cytochrome c/dATP-induced caspase activation (DEVD-pNA hydrolysis) in Jurkat T cell cytosolic extracts; format: biochemical
Procedure: Cells were washed with ice cold buffer A (20 mM Hepes (pH 7.5), 10 mM KCl, 1.5 mM MgCl2, 1 mM EDTA, 1 mM DTT and 0.1 mM PMSF) and suspended in 1 vol buffer A, then incubated on ice for 20 min. 293 cells were disrupted by passage 15× through a 26 gauge needle and Jurkat T cells were disrupted by dounce homogenization in 2 ml using 15 strokes with a pestle B. Cell extracts (10–15 mg total protein/ml) were clarified by centrifugation at 16,000×g for 30 min, then the NaCl concentration was increased by 50 mM. Cytosolic fractions were used immediately or stored frozen at −80° C.
Caspase activity was assayed by release of either 7-amino-4-trifluoromethyl-coumarin (AFC) or p-nitroanilide (pNA) from benzylyoxycarbonyl-DEVD (SEQ ID NO: 2) or benzylyoxycarbonyl-YVAD (SEQ ID NO: 3) synthetic peptides using a Molecular Devices Spectromax 340 for AFC labeled peptides or Perkin/Elmer LS50B for pNA labeled peptides (see Example II; see, also, Zhou et al., supra, 1997). Cytosolic extracts from 293 cells or Jurkat T cells were used directly (negative control) or were treated with 1 μM cytochrome c and 1 mM dATP or with cytochrome c, dATP and 0.2 μM GST-XIAP. Additional control reactions were performed by substituting 2 μM GST-Bcl-2, GST-Bax, GST-NM23 or GST-CD40 cytosolic domain, or 5 μM His6-S5a protein for GST-XIAP. DEVD-pNA hydrolysis was measured at various times and multiple experiments were performed using several different GST-XIAP preparations.

293T cells = test: Bax-induced apoptosis and caspase activation in transfected 293T cells; format: cell-based, human
Procedure: N-benzyloxycarbonyl-Val-Ala-Asp fluoromethylketone (zVAD-fmk; 50 μM) (Bachem Calif.; Torrance, Calif.) was added immediately after transfection of the Bax plasmid. Transfection efficiency was uniformly 80–90%, as determined by X-Gal staining following cotransfection with pCMV-βGal.
Cells were maintained in culture for 24 hr, then floating and attached cells were harvested and an aliquot was removed and the percent of dead cells was determined by either trypan blue or propidium iodide (PI) dye exclusion assay. A second aliquot was used to assess the percentage of apoptotic cells with subdiploid DNA content by FACS analysis of PI stained, ethanol fixed cells. The remaining cell pellets were lysed in 10 mM HEPES (pH 7.5), 142 mM KCl, 1 mM EGTA, 1 mM DTT, 0.2% NP-40, 0.1 mM PMSF and used for immunoblot analysis or for protease assays.

[2] = DEVD-AFC hydrolysis with/without GST-XIAP

T2 sequence (Q14790 217-374 limits assumed): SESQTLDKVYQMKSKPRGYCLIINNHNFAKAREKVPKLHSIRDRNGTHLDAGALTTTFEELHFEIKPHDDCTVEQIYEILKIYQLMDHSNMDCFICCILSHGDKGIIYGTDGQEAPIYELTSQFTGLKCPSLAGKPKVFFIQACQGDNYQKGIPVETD
T2 sequence (Q14790 385-479 limits assumed): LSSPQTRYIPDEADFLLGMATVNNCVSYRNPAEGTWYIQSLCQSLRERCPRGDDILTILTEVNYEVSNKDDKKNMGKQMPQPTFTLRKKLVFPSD

XIAP: X chromosome linked inhibitor of apoptosis protein (Genbank U32974), used mostly as recombinant GST fusion or expressed from plasmid
interference with substrate cleavage by caspase-6 (caspase-6; 50-fold molar excess): did not interfere | average ratio velocity (vi/vo), caspase-6 (caspase-6; [2]): about 1.0 | interference with substrate cleavage by caspase-8 (caspase-8; 50-fold molar excess): did not interfere | average ratio velocity (vi/vo), caspase-8 (caspase-8; [2]): about 1.0 | interference with substrate cleavage by caspase-1 (caspase-1): did not interfere | DEVD-pNA hydrolysis, ΔA405 after 15 min ([1]; untreated ≈0.02): ≈ 0.025 | DEVD-pNA hydrolysis, ΔA405 after 20 min ([1]; untreated ≈0.025): ≈ 0.03 | apoptotic cells (PI staining) in Bax expressing cells (293T cells; 24 hr, Bax alone about 25%, zVAD-fmk 50 μM): less than 10% | Bax-induced generation of caspase activity and pro-caspase-3 processing (in words) (293T cells; DEVD-AFC hydrolysis and immunoblot of cell extracts): markedly inhibited | apoptotic cells (PI staining) (293T cells; XIAP expressed without Bax, control plasmid about 2%): about 5%
